This is an account of results in article doi:10.1101/2024.03.04.583305.

Common to all, as to assay: EMSA
On the technique in general: In EMSA bound probe runs differently from free probe, usually more slowly.

Data set [1] has as its target DuoMYC (5) (synthetic) (UniProt P01106).
The target of data set [2] is DuoMYC (7) (synthetic) (UniProt P01106).
Data set [3] deals with monoMYC (4) (synthetic) (UniProt P01106).
monoMYC (4) (synthetic), sequence (P01106 365-423): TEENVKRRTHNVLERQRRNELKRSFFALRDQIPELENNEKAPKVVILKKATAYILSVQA

DuoMYC (7) (synthetic), sequence (P01106 whole entry): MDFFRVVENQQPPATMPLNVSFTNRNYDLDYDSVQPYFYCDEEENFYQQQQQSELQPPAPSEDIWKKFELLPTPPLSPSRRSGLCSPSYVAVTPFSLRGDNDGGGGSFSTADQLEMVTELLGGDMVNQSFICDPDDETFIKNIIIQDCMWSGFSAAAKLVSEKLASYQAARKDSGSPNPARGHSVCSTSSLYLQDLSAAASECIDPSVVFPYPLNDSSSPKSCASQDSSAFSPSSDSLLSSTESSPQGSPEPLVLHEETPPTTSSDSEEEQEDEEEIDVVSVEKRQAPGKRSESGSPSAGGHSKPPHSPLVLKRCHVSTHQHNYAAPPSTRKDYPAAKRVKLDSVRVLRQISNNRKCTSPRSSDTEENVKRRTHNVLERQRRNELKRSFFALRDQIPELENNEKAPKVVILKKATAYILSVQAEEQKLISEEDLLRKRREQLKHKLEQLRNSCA
DuoMYC (5) (synthetic), sequence (P01106 365-423): as the sequence (P01106 365-423) above

The Kd is the concentration at which binding is half-saturated. Higher therefore signals lower affinity. As for “ACCCCACCACGTGGTGCCT (double strand) [E-Box DNA]”, the Kd in data set [1] stood at 118 nM; in data set [2], 174 nM; in data set [3], 969 nM.
